Residue numbers refer to the chain shown, from its start. Values belong to the molecule of their own block, whether it stands above or below them.
Tests used:
RXFP1 G45W46-AA = target: T1, RXFP1 G45W46-AA (Homo sapiens, UniProt Q9HBX9, G67A/W68A); experiment: Eu-H2 relaxin saturation binding assay, transfected HEK293T cells; details: construct G45W46-AA, maximum H2 concentration 15 nM
T1 construct: transiently transfected human embryonic kidney (HEK) 293T cells expressing full-length RXFP1 and mutants; expressed in transfected cells; host or cells: HEK293T
T1 sequence (Q9HBX9 23-757 G67A/W68A limits assumed): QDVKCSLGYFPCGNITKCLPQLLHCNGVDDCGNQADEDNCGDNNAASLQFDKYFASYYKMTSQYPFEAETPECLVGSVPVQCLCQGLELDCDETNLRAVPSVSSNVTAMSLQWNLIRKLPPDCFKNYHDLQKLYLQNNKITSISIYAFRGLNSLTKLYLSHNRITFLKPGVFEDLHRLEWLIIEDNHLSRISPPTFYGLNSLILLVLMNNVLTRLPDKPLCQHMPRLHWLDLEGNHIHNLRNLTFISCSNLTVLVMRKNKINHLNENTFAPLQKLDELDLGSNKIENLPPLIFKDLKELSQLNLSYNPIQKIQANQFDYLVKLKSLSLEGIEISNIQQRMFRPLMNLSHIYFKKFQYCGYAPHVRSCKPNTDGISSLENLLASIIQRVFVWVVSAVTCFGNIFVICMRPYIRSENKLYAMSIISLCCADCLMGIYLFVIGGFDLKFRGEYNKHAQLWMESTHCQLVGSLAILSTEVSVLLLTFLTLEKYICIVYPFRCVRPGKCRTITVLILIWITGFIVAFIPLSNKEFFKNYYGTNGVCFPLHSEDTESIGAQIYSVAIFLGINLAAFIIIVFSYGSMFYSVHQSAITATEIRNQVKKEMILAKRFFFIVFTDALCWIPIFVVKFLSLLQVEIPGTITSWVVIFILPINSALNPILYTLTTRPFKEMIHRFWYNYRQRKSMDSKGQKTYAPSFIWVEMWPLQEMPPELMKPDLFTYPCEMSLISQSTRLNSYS

RXFP1 F54A = target: T2, RXFP1 F54A (Homo sapiens, UniProt Q9HBX9, F76A); experiment: as above; details: F54A-RXFP1 versus wild-type RXFP1
T2 construct: cells expressing full-length RXFP1 and mutants; expressed in transfected cells; host or cells: HEK293T
T2 sequence (Q9HBX9 23-757 F76A limits assumed): T1 sequence (Q9HBX9 23-757 G67A/W68A limits assumed) with A45G, A46W, F54A

RXFP1 C40A^ins = target: T3, RXFP1 C40A^ins (Homo sapiens, UniProt Q9HBX9, INS62A); experiment: as above; details: C40A^ins full-length RXFP1 versus wild-type RXFP1
T3 construct: cells expressing full-length RXFP1 and mutants; expressed in transfected cells; host or cells: HEK293T
T3 sequence (Q9HBX9 with tags, fused parts or gaps INS62A limits assumed): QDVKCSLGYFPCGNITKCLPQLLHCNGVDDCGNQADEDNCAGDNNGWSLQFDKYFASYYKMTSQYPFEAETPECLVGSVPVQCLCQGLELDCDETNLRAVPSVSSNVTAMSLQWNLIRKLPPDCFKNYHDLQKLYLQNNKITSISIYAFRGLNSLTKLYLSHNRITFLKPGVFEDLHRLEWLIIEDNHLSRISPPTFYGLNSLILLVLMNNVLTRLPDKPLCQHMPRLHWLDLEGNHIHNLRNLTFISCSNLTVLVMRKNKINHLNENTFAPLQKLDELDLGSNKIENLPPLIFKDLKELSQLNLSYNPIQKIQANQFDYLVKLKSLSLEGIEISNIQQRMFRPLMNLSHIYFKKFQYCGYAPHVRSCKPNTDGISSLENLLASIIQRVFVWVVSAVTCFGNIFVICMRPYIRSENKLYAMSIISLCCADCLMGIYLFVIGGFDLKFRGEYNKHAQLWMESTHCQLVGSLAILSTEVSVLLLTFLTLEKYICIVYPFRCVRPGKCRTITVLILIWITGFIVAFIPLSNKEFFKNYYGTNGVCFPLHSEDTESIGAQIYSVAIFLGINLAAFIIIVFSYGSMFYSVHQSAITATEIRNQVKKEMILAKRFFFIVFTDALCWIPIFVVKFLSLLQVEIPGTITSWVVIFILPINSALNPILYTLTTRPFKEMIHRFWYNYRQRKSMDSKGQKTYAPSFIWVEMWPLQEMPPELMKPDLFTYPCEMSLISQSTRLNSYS

[1] = target: RXFP1 A55S, full length (human)
[2] = target: RXFP1 E67A, full length (human)
[3] = target: RXFP1 K52A, full length (human)
[4] = target: RXFP1 Q49A/F50A, full length (human)
[5] = target: RXFP1 S47A/L48A, full length (human)
[6] = target: RXFP1 W46A, full length (human)
[7] = target: RXFP1 Y58A, full length (human)

Molecule: H2 relaxin: two-chain 6-kDa peptide hormone structurally related to insulin; recombinant human gene-2 H2 relaxin provided by Corthera
Kd (RXFP1 G45W46-AA): > 20 nM | loss in H2 relaxin binding (RXFP1 F54A): fourfold | decrease in H2 relaxin affinity (RXFP1 C40A^ins): sixfold

H2 relaxin-induced cAMP response (pCRE β-galactosidase reporter, HEK293T), pEC50 [1]: 11.4 pEC50 | H2 relaxin-induced cAMP response (pCRE β-galactosidase reporter, HEK293T), pEC50 [2]: 11.1 pEC50 | H2 relaxin-induced cAMP response (pCRE β-galactosidase reporter, HEK293T), pEC50 [3]: 11.1 pEC50 | H2 relaxin-induced cAMP response (pCRE β-galactosidase reporter, HEK293T), pEC50 [4]: 9.17 pEC50 | H2 relaxin-induced cAMP response (pCRE β-galactosidase reporter, HEK293T), pEC50 [5]: 11.1 pEC50 | H2 relaxin-induced cAMP response (pCRE β-galactosidase reporter, HEK293T), pEC50 [6]: 7.02 pEC50 | H2 relaxin-induced cAMP response (pCRE β-galactosidase reporter, HEK293T), pEC50 [7]: 10.9 pEC50
B1: H2 relaxin (ligand, human)
chain 1: QLYSALANKCCHVGCTKRSLARFC
chain 2: DSWMEEVIKLCGRELVRAQIAICGMSTWS

Source: article PMC4837482, “The complex binding mode of the peptide hormone H2 relaxin to its receptor RXFP1” (Nature Communications, 2016)
